The supplement of paper PMC10567573

B1: RHOBTB2 (parent)
chain: HHHHGRDFLLRAASFDVCESVDEA

Variants of: B1
Test: protein stability index of a GFP-peptide fusion (GPS, HEK-293T) (PSI 1-6); higher = more stable
Details: c terminus: a fixed tail appended
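Note: lentivirally expressed fusions sorted by FACS into six bins by GFP to DsRed ratio, PSI derived from sequencing read proportions per bin multiplied by bin number.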

Variant	protein stability index
H4S	4.15
H4W	2.31
H4Y	3.3
H4R	3.62
H4V	4.02
H4T	3.94
H4Q	4.11
H4N	4.15
H4P	4.59
F8T	4.28
F8P	5.21
F8I	4.19
F8A	5.04
F8G	4.74
F8E	4.89
F8Q	5.04
F8R	4.74
F8M	4.86
F8H	5.06
F8S	4.37
F8Y	3.57
F8L	4.45
F8C	4.74
F8W	3.28

Variant	protein stability index
F8K	4.61
F8D	5.15
F8N	5.33
F8V	4.66
A12I	2.54
A12P	4.52
A12H	2.94
A12R	4.37
A12D	4.55
A12S	3.29
A12W	2.67
A12M	2.96
A12F	1.92
A12V	3.03
A12Y	2.08
A12Q	3.73
A12E	5.13
A12G	4.25
A12L	3.14
A12C	2.4
A12K	4.26
A12N	3.82
A12T	1.66
L10S	3.81

Variant	protein stability index
L10Y	3.9
L10I	4.21
L10F	2.96
L10G	4.29
L10C	4.2
L10D	5.17
L10M	3.64
L10P	4.18
L10H	4.69
L10V	4.06
L10A	3.94
L10N	5.01
L10K	4.09
L10W	2.34
L10R	4.55
L10E	5.02
L10T	4.8
L10Q	4.86
A13C	1.87
A13D	4.51
A13F	1.92
A13G	4.33
A13E	4.38
A13H	3.75

Variant	protein stability index
A13I	3.12
G5C	2.63
G5S	4.61
G5P	4.44
G5R	4.3
G5K	4.2
G5H	4.34
G5N	3.95
G5M	3.42
G5W	2.21
G5E	4.42
G5Q	4.21
G5Y	2.33
G5F	1.6
G5T	4.15
G5A	3.83
G5L	2.6
G5I	3.27
G5D	4.86
G5V	3.37
L9P	4.81
L9T	4.53
L9M	4.41
L9C	4.48

Variant	protein stability index
L9Q	5.09
L9K	4.35
L9R	4.3
L9N	5.06
L9D	5.28
L9S	4.03
L9F	3.2
L9Y	3.54
L9G	4.6
L9I	4.06
L9H	5.1
L9A	4.98
L9E	4.89
L9V	4.33
R11V	2.85
R11L	2.35
R11Y	2.39
R11N	3.87
R11E	5.3
R11Q	3.94
R11C	2.63
R11K	4.17
R11I	2.41
R11P	4.26

Variant	protein stability index
R11T	3.72
R11M	2.38
R11G	4.43
R11H	4.06
R11F	1.67
R11S	3.85
R11W	1.44
R11D	5.18
R11A	3.29
R6Q	4.37
R6T	4.2
R6N	4.59
R6F	2.8
R6M	3.49
R6P	4.19
R6Y	3
R6K	4.5
R6I	2.12
R6L	3.81
R6D	4.61
R6A	4.33
R6V	2.63
R6G	4.7
R6C	3.51

Variant	protein stability index
R6H	4.41
R6E	5.07
R6S	3.85
R6W	2.55
D7F	2.06
D7Q	3.18
D7S	3.17
D7W	2.29
D7E	3.8
D7A	2.97
D7C	1.92
D7N	3.25
D7T	2.92
D7V	2.87
D7M	1.79
D7R	3.16
D7I	1.99
D7G	3.34
D7H	2.34
D7P	3.31
D7L	1.82
D7K	3.85
D7Y	2.04
